Measurements: the nanobody polyreactivity screen of Harvey et al. (2022)

Assay: yeast display, Sf9 membrane polyspecificity reagent, FACS + sequencing; frameworks hold sequencing errors
Summary of the method: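 Nanobodies came from a synthetic yeast display library in Saccharomyces cerevisiae BJ5465, induced with galactose for 36–48 hours and stained for 1 hour at 4 °C with 10% biotinylated, detergent-solubilized Sf9 membrane reagent. Cells were enriched on streptavidin microbeads and then FACS-sorted, with low and high (top ~1%) gates set on anti-HA fluorescence for expression and streptavidin fluorescence for reagent binding. Each polyreactivity label reflects the gate a clone came from. Genes were amplified by colony PCR, sequenced by MiSeq 2 × 250 and filtered by CDR length.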

| Sequence | polyreactivity (PSR sort gate) |
| --- | --- |
| QVQLVESGGGLVQAGGSLRLSCAASGRIFAKYAMGWSRQAPGTERELVAAISWRGGRTYYADSVKGRFTISRDNAKNTVYLQMNSLKPEDTAVYYCNAVGSRAYVASAWTQMDYWGQGTQVTVSS | high polyreactivity |
| QVQLVESGGGLVQAGGSLRLSCAASGSISVWYVMGWYRQAPGKERELVAAITRSGGSTFYADSVKGRFTISRDNAKNTVYLQMNSLKPEDTAVYYCAADGGVAWGYGYWGQGTQVTVSS | low polyreactivity |
| QVQVVESGGGLVQAGGSLRLSCAASGSNFQRYTMGLYRQAPGKDRELVAAITGRGGSTYYADSVKGRFTISRDNAKNTVYLEMNSLKPEDTAVYYCAAGAFRRYKSDYYYWGQGTQVTVSS | low polyreactivity |
| QVQLVESGGGLVQAGGSLRLSCAASGRIFAGYAMGWYRQAPGKERELVATISSGGSTYYADSVKGRFTISRDNAKNTVYLQMNSLKPEDTAVYYCAAEYGTRQYSSYYKLFNYWGQGTQVTVSS | low polyreactivity |
| QVQLVESGGGLVQAGGSLRLSCAASGSIFYPNAMGWYRQAPGKERELVAANSIGGGRTYYADSVKGRFTISRDNAKNTVYLQMNSLKPEDTAVYYCAASFYSYTSTWAYRFYYWGQGTQVTVSS | high polyreactivity |
| QVQLVESGGGLVQAGGSLRLSCAASGLTFAYYAMGWYSQAPGKEREMVASINSGGSTNYADSVKGRFTISRDNAKNTVYLLMNSLKPEDTAVYYCAADWATWWYTYDFWGQGTQVTVSS | high polyreactivity |
| QVQLVESGGGLVQAGGSLRLSCAASGSIFSFYAMGWYRQAPGKERELVATISSGDNTNYADSVKGRFTISRDNAKNTVYLQMISLKPEDTAVYYCAADAWGVDREYDYWGQGTQVTVSS | low polyreactivity |
| QVQLVESGGGLVQAGGSLRLSCAASGIFASYAMGWYRQAPGKERELVAAIRSSGGRTYYADSVKGRFTISRDNAKNTFYLQMNSLKPEDTAVYYCAARYYTYDGYSKYDFWGQGTQVTVSS | high polyreactivity |
| QVQLVESGGGLVQAGGSLRLSCAASGRIFYINDMGWYRQAHGKERELVAAISASGGSTYYADSVKGRFTISRDNAKNTVYLQMNSLKPEDTAVYYCAAVYFHPGYDLFDYWGQGTQVTVSS | low polyreactivity |
| QVQLVQSGGGLVQAAGSLRLICAASGRTFPANAMGWYRQAPGKERELVAGITKSGGNTYYADSVKGRFTISRDNAKNTVYLQMNSLKPEDTAVYYCATRYYPLVNYLGYDYWGQGTQVTVSS | low polyreactivity |
| QVQLVESGGGLVQAGGSLRLSCAASGSTFDTYAMGWYRPAPRKERELLAAISRSGTSTYYADSVKGRFTISRDNAKNTVYLQMNSLKPEESAVYYCAAYGPRVNGEIGREYYYWGQGTQVTVSS | low polyreactivity |
| QVQLVESGGGLVQAGGSLRLSCAASGRTFTAYAMGWYRQAPGKERELVAAITSGGSTYYADSVKGRFTISRDNAKNTVYLQMNSLKPEDTAVYYCATDLYSFYWPEYEYWGQGTQVTVSS | low polyreactivity |
| QVQLVESGGGLVQAGGSLRLSCAASGSISSVNAMGWYREAPGKERELVATISSGGSTYADSVKGRFTISRDNAKNTVYLQMNSLKPEDTAVYYCATYFVAYTFYYRWYRSYASFYYWGQGTQVTVSS | low polyreactivity |
| QVQLVESGGGLVQAGGSLRLSCAASGSIFDYYAMGWYRQAPGKERELVAAISRSGSRTYYADSVKGRFTISRDNAKNTVYLQMNSLKPEDTAVYYCNAYLTLPYSNHAYYYWGQGTQVTVSS | high polyreactivity |
| QVQLVESGGGLVQAGGSLRLSCAASGSIFAGYAMGWYRQAPGKERELVAAISRSGGRTYYADSVKRRFTISRDNAKNTVNLQMNSLKPEDTAVYYCAAHRRSANDYDYWGQGTQVTVSS | high polyreactivity |
| QVQLVESGGGLVQAGGSLRLSCAASGSTFVANAMGWYRQAPGKERELVAAIDYDDGGTYYADSVKGRFTISRDNAKNTVYLQMNSLKPEDTAVYYCAADYGDIGAVLHYPVELGYWGQGTQVTVSS | low polyreactivity |
| QVQLVESGGGLVQAGGSLRLSCAASGRIFRYYAMGWYRQAPGKERELVAAINWGGGSTYYADSVKGRFTISRDNAKNTVYLQMNSLKPEDTAVYYCNRDRNSFPHYFSHYGYWGQGTQVTVSS | high polyreactivity |
| QVQLVESGGGLVQAGGSLRLSCAASGRTFYRYAMGWYRQAPGKERELVAAITRRGDSTSYADSVKGRFTNSRDNAKNTVYLQMNSLKPEDTADYYCATLVQGSVYGLYGGGYWGQGTQVTVSS | low polyreactivity |
| QVQLVESGGGLVQAGGSLRLSCAASGRTFGYYAMGWYRQAPGKERELVAAISWRGTSTYYADSVKGRFTISRDNAKNTVYLQMNSLKPEDTAVYYCNRYTTRYYPGGDYWGQGTQVTVSS | high polyreactivity |
| QVQLVESGGGLVQAGGSLRLSCAASGSIFNSYAMGWYRQAPGKETELVAAITRSDGSTYYADSVKGRFTISRDKAKNTVYLQMNSLKPEDTAVYYCAKGVGGYIYSEYDYWGQGTQVTVSS | low polyreactivity |
| QVQHVESGGGLVQAGGSLRLSCAASGSILFKYAMGWSRQAPGQESELVATITSGGSTYYADSVKGRVTISRDNAKNTVYLQMNSLKPEDTAVYYCATGQYYYDGIVAFFELDYWGQGTQVTVSS | low polyreactivity |
| QVQLVESGGGLVQAGGRLRLSCAASGYTFRRNAMGWYRQAPGKERELVAAITWRGTSTYYADSVKGRFTISRDNAKNTVYLQMNSLKPEDTAVYYCAARFYSGPGGYTMYYWGQGTQVTVSS | high polyreactivity |

| Sequence | polyreactivity (PSR sort gate) |
| --- | --- |
| QVQLVESGGGLVQAGGSLRLSCAAYGITFSKNAKGWYRQAPGKERELVAAISRGGSSYYADSVKGRFTISRDNAKNTVYLQMNSLKPEDTAVYYCSAGWLRKYYYWGQGTQVTVSS | low polyreactivity |
| QVQLVESGGGLVQAGGSLRLSCAASGSTFYINAMRWYRPAPGKERELVAAISWSGGSTYYADSVKGRFTISRDNAKNTVYLQMNSLKPEDTAVYYCAADWYLGWSLDYDYWGQGTQVTVSS | low polyreactivity |
| QVQLVESGGGLVQAGGSLRLSCAASGRTFSIYAMGWYRQAPGKERELVASITNSDGSTYYADSVKGRFTISRDNAKNTVYLQMNSLKPEDTAVYYCNVDSGQSWSLWTYVQYDDYWGQGTQVTVSS | low polyreactivity |
| QDQLVESGGGLVQAGGSLRLSCAASGRIFDLYAMGWYRQAPGKERELVATISTRGGRTYYADSVKGRFTISRDNAKNTVYLQMKRLKPEDTAVYYWNARYLGYGWFDYWGQGTQVTVSS | low polyreactivity |
| QVQLVESGGGLVQAGGSLRLSCAASGSTFYGYALGWYRQAPGKERELVAGITSAGSTYYADSVKGRFTISRDNAKNTVYLQMNSLKPEDTAVYYCAAVYRRWIWRERYYYCGQGTQVTVSS | high polyreactivity |
| QVQLVESGGGLVQAGGSLRLSCAASGSIFNRYTMGSYRQAPGKEREFVAAISSSGTSTYYADSVKGRFTISRDNAMNTVYLQMNSLKPEDTAVYYCAADYYRTPKSGSSGLDYWGQGTQVTVSS | low polyreactivity |
| QVQLVESGGGLVQAGGSLRLSCAASGRTFRLYAMGWHRQAPGKERELVAAITRGGRTNYADSVKGRFTISRDNAKNTVYLQMNSLKPEDTAVYYCAARYVERHTDYYYWGQGTQVTVSS | low polyreactivity |
| QDQLVESGGGLVQAGGSLRLTCAASGSTFTLYVMGWYRQAPGKARELVAAISRGDTTNYADSVKGRFTISRDNAKNTVYLQMNSLKPEDTAVYYCAATYPTFFYWSKVYERDYWGQGTQVTVSS | low polyreactivity |
| QVQLVESGGGLVQAGGSLRFSCAASGSTFRYNAMGWYRQAPGKERELVAVISWGGGRTYYADSVKGRFTISRDNAKNTVYLKMNSLKPEDTAVYYCNVYFGRIVARDYGYWGQGTQVTVSS | high polyreactivity |
| QVQLVESGGGLVQSGGSLRLSCAASGRIIKSYAMGRYRQAPGKERELVAAISRSGGRTYYADSVKGRFSISRDNAKNTVYLQMISLKPEDTAVYYCAATTFVAPSWGQGTQVTVSS | low polyreactivity |
| QVQLVESGGGLVQAGGSLRLSCAASGTTFKTYCMGRYRQAPGKERELVAAISRRGGSTSYADSVKGRFTISRDNAKNTVYLQMNSLKPEDTAVYYCNVLGWWHVWGYDYWGQGTQVTVSS | high polyreactivity |
| QVQLVESGGGLVQAGGSLRLSCAASGLILYYYTIGWYRQAPGKERELVAAINSGGNTYYADSVKGRFTISRDNAKNTVYLQMNSLKPEDTAVYYCNAYRVRYKRSYDYWGQGTQVTVSS | high polyreactivity |
| QVQLVESGGGLVQAGGSLRLSCAASGLIFVWYAMGWYRQAPGKERELVAAITRSGGSTYYADSVKGRFTISRDNAKNTVYLQMNSLKPEDTAVYYCAARWKFPSSFYYWGQGTQVTVSS | high polyreactivity |
| QVQLVESGGGLVQAGGSLRLSCAASGSTFGYYAMGWYRQAPGKERELVAAISVRGGRTYYADSVKGRFTISRDNAKNTVYVQMKSLKPEDTAVYYCATLLPGLGRYGYDYWGQGTQVTVSS | high polyreactivity |
| QVQLVESGGGRVQAGGTHRLRSAASGFTFRQYAMGWYRPAPGKERELLAAISRSGSRTYYADSVKRRFTISRDNAKHTVYLQMNCLKPEDTAVYYCYAVFSTFTGEYYWGHGTQVTVSS | high polyreactivity |
| QVQLVESGGGLVQAGGSLRLSCAASGFTFTTYDMGWYRQAPGKERELVAAINSGGSTNYADSVKGRFTISRDNAKNTVYLQMNSLKPEDTAVYYCAAEFYWYYNNFFEDRYYWGQGTQVTVSS | low polyreactivity |
| QVQLVESGGGLVQAGGSLRLSCAASGFTFAWYTMGWYRQAPGKERELVAAITDSGDSTYYADSVKGRFTISRDNAKNTVYLQMNSLKPEDTAVYYCATRTWYWDIWITEYDYWGQGPQVTVSS | low polyreactivity |
| QVQLVESGGGLVHAGGSLRLSCAASGSIFYRYAKGWYIQAPGKERDLVAAITYSGGRTYYADSVKGRFTISRDNAKNSVYLKMNILKPEDTAVYYCAAEKQSYGSPKGYDYWGQGTQVTVSS | low polyreactivity |
| QVQLVESGGGLVQAGGSLRLSCAASGRTFGPYAMGWYRQAPGKERELVAAITSSGGSTYYADSVKGRFTISRDNAKNTVYLQMNSLKPEDTAVYYCNNLYWRQSQDYDYWGQGTQVTVSS | low polyreactivity |
| QVQLVESGGGLVQAGGSLRLSCAASGFIFEYYAMGWYRQAPGKERELVAAISQSGGSTYYADSVKGRFTISRDNAKNTVYLQMNSLKPEDTAVYYCNKTRYSRSYYEYDYWGQGTQVTVSS | low polyreactivity |
| QVQLVESGGGLVQAGGSLRLSCAASGSTFKNNAMGWYRQAPGKEREFVASISKRGGSTYYADSEKGRFTISRDNAKNTVYLQMNSLKPEDTAVYYCAAEELRYGLYEYDYWGLGTQVTVSS | high polyreactivity |
